This note sets out measurements from paper PMC11018607, “A widely conserved protein Rof inhibits transcription termination factor Rho and promotes Salmonella virulence program” (Nature Communications, 2024).

In the assay the target is T1, Transcription termination factor Rho (E. coli) (E. coli, UniProt P0AG30 1-419).
T1 construct: Transcription termination factor Rho, E. coli, expressed from pET24b-rho; no tag is mentioned; In the cryo-EM map density was absent for residues 280-284; also called EcRho; Rho hexamer; source: E. coli BL21(DE3) carrying pET24b-rho, purified (HiTrap Q, heparin, Superdex 200)
The experiment in a line: SEC; gel filtration of the complex assembled by mixing purified Rho and Rof at a ratio of 1:1. To be noted: both partners purified. Background: In gel filtration, larger molecules generally elute earlier.

T1 sequence (P0AG30 whole entry, the tested form may be a part): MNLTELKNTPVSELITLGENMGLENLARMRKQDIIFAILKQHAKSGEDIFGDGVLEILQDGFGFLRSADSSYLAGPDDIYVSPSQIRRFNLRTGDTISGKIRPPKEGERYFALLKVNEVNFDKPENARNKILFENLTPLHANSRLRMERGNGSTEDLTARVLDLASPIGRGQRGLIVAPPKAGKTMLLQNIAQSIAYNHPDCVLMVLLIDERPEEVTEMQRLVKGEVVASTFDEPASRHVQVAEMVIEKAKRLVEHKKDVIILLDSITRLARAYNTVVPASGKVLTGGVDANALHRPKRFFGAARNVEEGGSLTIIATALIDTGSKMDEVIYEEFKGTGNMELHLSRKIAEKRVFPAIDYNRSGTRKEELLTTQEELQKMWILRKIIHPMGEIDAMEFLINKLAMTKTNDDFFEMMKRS

B1: Rof (Rho-off, YaeO), E. coli (natural protein)
chain: MNDTYQPINCDDYDNLELACQHHLMLTLELKDGEKLQAKASDLVSRKNVEYLVVEAAGETRELRLDKITSFSHPEIGTVVVSES
notes: Protein Rof (YaeO), E. coli, expressed from pET22b-rof; In the cryo-EM map density was absent for Rof residues 1-5; No removal of the tag is described; also called EcRof; source: E. coli BL21(DE3) transformed with pET22b-rof, purified (Ni-NTA, Superdex 200)
Regarding B1, the binding result is “binds”.
